According to publication PMC3158092:
Read-outs that look alike come from different tables or passages of the source.

Experiments:
[1] = target: YPet; experiment: FRET or BRET
[2] = target: YPet; experiment: FRET or BRET; remark: listed apart in the source

Row | Substance | FRET efficiency, oxidized (0 mmol/L DTT) [1] | FRET efficiency, reduced (10 mmol/L DTT) [1] | FRET efficiency, oxidized (0 mmol/L DTT) [2] | FRET efficiency, reduced (10 mmol/L DTT) [2]
1 | CyPet | 0.371 | 0.375 | 0.27 | 0.265
2 | ECFP |  |  | 0.288 | 0.376
